{"source": "paper PMC8895158", "about": "(2022)", "biological_target": "His-Src SH3 (UniProt P12931 84-145)", "experiment": "SPR"}
{"binder": "RKLPPRPSK", "note": "[RLP1 peptide]", "values": [{"measurement": "Kd", "result": 9.97, "unit": "µM"}]}
